In patent US20170009224A1:

Biological target: lambda repressor cI comprising a TEV protease cleavage site (ENLYFQ(G/S)) within the interdomain linker (UniProt P03034)
Assay: cell-based or functional assay

TEV protease (wild type), sequence (P04517 2038-2279): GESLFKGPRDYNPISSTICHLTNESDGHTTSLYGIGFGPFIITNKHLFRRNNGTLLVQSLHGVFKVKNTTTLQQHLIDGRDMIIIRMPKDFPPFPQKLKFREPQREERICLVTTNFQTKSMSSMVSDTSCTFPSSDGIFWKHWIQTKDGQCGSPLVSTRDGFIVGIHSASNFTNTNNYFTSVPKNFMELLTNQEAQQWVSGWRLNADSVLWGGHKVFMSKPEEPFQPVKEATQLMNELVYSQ

“TEV protease (wild type) (from UniProt P04517 2038-2279) (enzyme)” was tested, and the gene expression from the pR promoter driving pIII and luciferase was greater than 100 fold.
